{"source": "the RNAGym collection of RNA variant scans (doi:10.1073/pnas.2313332121)", "parents": {"B1": {"name": "TPR 5TU (parent)", "chain": "GGAUCUUCUCGAUCUAACAAAAAAGACAAAUCUGCCACAAAGCUUGAGAGCAUCUUCGGAUGCAGAGGCGGCAGCCUUCGGUGGCGCGAUAGCGCCAACGUUCUCAACUAUGACACGCAAAACGCGUGCUCCGUUGAAUGGAGUUUAUCAUG"}}, "note": "Fewer inactive variants are shown than the library holds."}
{"variants_of": "B1", "assay": "polymerase ribozyme fitness, log enrichment relative to wild type (log ratio); higher = more active; in vitro selection for triplet polymerase activity", "in_short": "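PCR was used to build mutant libraries for each subunit of a heterodimeric triplet polymerase ribozyme, which were then transcribed. A single in vitro selection round, in triplicate, used a frozen incubation at −7 °C and recovered extended constructs by gel excision, streptavidin beads and RT-PCR. Fitness is the logarithm of genotype enrichment relative to wild-type enrichment, averaged over replicates with inverse-variance weights. The logarithm is base 2, and after Illumina sequencing only genotypes with ≥10 input reads and ≥1 read per output were kept.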"}
{"variant": "GGAUCUUCUCGAUGUAACAAAAAAGACAAAUCUGCCACAAAGCUUGAGAGCAUCUACGGAUGCAGAGGCGGCAGCCUUCGGUGGCGCGAUAGCGCCAACGUUCUCAACUAUGACACGCAAAACGCGUGCUCCGUUGAAUGGAGUUUAUCAUG", "polymerase ribozyme fitness (log ratio)": -2.57}
{"variant": "GGAUCUUCUCGAUGUAACAAAAAAGACAAAUCUGCCACAAAGCUUGAGAGCAUCUUCGGAUGCAGAGGCGGCAGCCUUCGGAGGCGCGAUAGCGCCAACGGUCUCAACUAUGACACGCAAAACGCGUGCUCCGUUGAAUGGAGUUUAUCAUG", "polymerase ribozyme fitness (log ratio)": -2.29}
{"variant": "GGAUCUUCUCGAUUUAACGAAAAAGACAAAUCUGCCACAAAGCUUGAGAGCAUCUUCGGAUGCAGAGGCGGCAGCCUUCGGUGGCGCGAUAGCACCAACGUUCUCGACUAUGACACGCAAAACGCGUGCUGCGUUGAAUGGAGUUUAUCAUG", "polymerase ribozyme fitness (log ratio)": "≤ -4.2"}
{"variant": "GGAUCUUCUCGAUGUAACAAAAAAGACAAAACUGCCACAUAGCUUGAGAGCAUCUUCGGAUGCAGAGGCGGCAGCCUUCGGUGGCGCGAGAACGCCAACGUUCUCAGCUAUAACACGCAAAACGCGUGCUCCUUUGAAUGAAGUUUAUCAUG", "polymerase ribozyme fitness (log ratio)": "≤ -4.2"}
{"variant": "GGAUCUUCUCGAUGAAAUAAAAAAUAGAAAUCUGCCACAAAGCUUGAGAGCAUCUUCGGAUACAGAGGCGGCAGCCUUCGGUGGGGCGAUAGCGCCAACGUUCUCAACUAUGACACGCAAAACGCGUGCUCCGUUGACUGGAGUUUAUCAUG", "polymerase ribozyme fitness (log ratio)": "≤ -4.2"}
{"variant": "GGAUCUUCUCGAUGUAACAAAAAAGACAAAUCUGCCACAAAGCUUGAGAGCAUCUACGGAUGCAGAGGCGGCGGCCUUCGGUGGCGCGAUAGCGCCAACGUUCUCAACUAUGACACGCAAAACGCGUGCUCCGUCGAAUGGAGUUUAUCAUG", "polymerase ribozyme fitness (log ratio)": -4.12}
{"variant": "GGAUCUUCUCGAUGUAACAAAAAAGACAAAUCUGCCACAAAGCUUGAGAGCAUCAUCGGAUGCAGAGGCGGCAGCCUUCGGUGGCGCGAUAGCGCUAACGUUCUCAACUAUGACACGCAAAACGCGUGCUCCGUUGAAUGGAGUUUAUCAUG", "polymerase ribozyme fitness (log ratio)": -3.27}
{"variant": "GGAUCUUCUCGAUGAAACAAAAAAGACAAAUCUGCCACAAAGCUUGAGAGCAUCUUCGGAUGCAGAGCCGGCAGCCUUCGGUAGCGCGAUAGCGCCAACGUUCUCAACUACGACACGCAAAACGCGUGCUCCGUUGAAUGGAGUUUAUCAUG", "polymerase ribozyme fitness (log ratio)": "≤ -4.2"}
{"variant": "GGAUCUUCUCGAUGCAAUAAAAAAGACAAAUCUGCCACUAAGCUUGAGCGCAUCUUCGGAUGCAGAGGCGGCAGCCUUCCGUGGCGCGAUAGCGCCAACGUUCUCAACUCUGACACGCAAAACGCGUGCUCCGUUGAAUGGAGUUUAUCAUG", "polymerase ribozyme fitness (log ratio)": "≤ -4.2"}
{"variant": "GGAUCUUCUCGAUGUAACAAAAAAGACAAAUCUGCCACAAAGCUUGAGAGCAUCUUCGGAGGCAGAGGCGGCAGCCUUCGGUGGCGCGAUAGCGCCAACGUUCUCAACUAUGACACGCAAAACGCGUGCUCCGUUGAAUGGAGUUUAUCAUG", "polymerase ribozyme fitness (log ratio)": -3.62}
{"variant": "GGAUCUUCUCGAUGUAACAAAAAAGACAAAUCUGCCACAAAGCUUGAGAGCAUCUUCGGAAGCAGAGGCGGCAGCCUUCGGUGGCGCGAUAGCGCCAACGUUCUCAACUAUGACACGCAAAACGCGUGCUCCGUUGAAUGGAGUUUAUCAUG", "polymerase ribozyme fitness (log ratio)": -3.55}
{"variant": "GGAUCUUCUCGAUGUAACAAAAAAGACAAAUCUGCCACAAAGCUUGAGAGCAUCAUCGGAUGCAGAGGCGGCAGCCUUCGGUGGCGCGAUAUCGCCAACGUUCUCAACUAUGACACGCAAAACGCGUGCUCCGUUGAAUGGAGUUUAUCAUG", "polymerase ribozyme fitness (log ratio)": -2.92}
{"variant": "GGAUCUUCUCGAUGUAACAAAAAAGACAAAUCUGCCACAAAGCUUGAGAGCAUCAUCGGAUGCAGAGGCGGCAGCCUUCGGUGACGCGAUAGCGCCAACGUUCUCAACUAUGACACGCAAAACGCGUGCUCCGUUGAAUGAAGUUUAUCAUG", "polymerase ribozyme fitness (log ratio)": -3.7}
{"variant": "GGAUCUUCUCGAUUUUACAAAAAAGAAAAGUCUGCCACAAAUCUUGAGAGUAUCUUCGGAUGCAGAGGCGGCAGCCUUCGGUGGCGCGAUAGAGCCAACGUUCUCAACUAUGACACGCAAAACGCGUGCUCCGUUGAAUGGAGUUUAUCAUG", "polymerase ribozyme fitness (log ratio)": "≤ -4.2"}
{"variant": "GGAUCUUCUCGAUGGAACAAAAAGGACAAAUCUGCCACAAAGCUUGAGAGCAUCUUCCGAUGCAGAGGCGGCAGCCUUCGGUGGCGGGAUAGCGCCAACGUUCUCAAAUAUGAUACGCAAAACGCGUGCUCCGUUAAAUGGAGUUUAUCAUG", "polymerase ribozyme fitness (log ratio)": "≤ -4.2"}
{"variant": "GGAUCUUCUCGAUUUAACAAAAAAGACAAAUCUGCCACAAAGCUUGAGAGCAUCUUCGGAUGCAGAGGCGGCAGCCUUCGGUGGCGCGAUAGCGCCAACGUUCUCAACUAUGACACGCAAAACGCGUGCUCCGUUGAAUGGAGUUUAUCAUG", "polymerase ribozyme fitness (log ratio)": -1.06}
{"variant": "GGAUCUUCUCGAUGGAACAAAAAAGACAAAUCUGCCACAAAGCUUGAGAGCAUUUUCUGAUGCAGAGGCGGCAGCCUUCGGUGGCGGGAUAGCGCCAACGUUCUUAACUAUGACACGCAAAACGCGUGCUCCGUUGAAUGGAAUUUAUCAUG", "polymerase ribozyme fitness (log ratio)": "≤ -4.2"}
{"variant": "GGAUCUUCUCGAUGUAACAAAAAAGACAAAUCUGCCACAAAGCUUGAGAGCAUCUUCGGAUGCAGAGGCGGCAGCCUUCGGUGGCGCGAUAGCGCCAACGUUCUCAACUAUGACACGCAAAACGCGUGCUCCGUUGAAGGGAGGUUAUCAUG", "polymerase ribozyme fitness (log ratio)": -1.38}
{"variant": "GGAUCUUCUCGAUGAAACAAAAAAGACAAAUCUGCCACAAAGCUUGAGAGCAUUUUCGGAUGCAGAGGAGGCAGCCUUCGGUGGCGCGAUAGCGCCAAAGUUCUCAACUAUGACACGCAAAACGCGUGCUCCGUUGAAUGGAGUUUAACAUG", "polymerase ribozyme fitness (log ratio)": "≤ -4.2"}
